This test concerns the target BORCS5 L128Vfs*86, C-terminally GFP-tagged (human) (UniProt Q969J3). Kind of test: co-IP; GFP-Trap agarose precipitation of C-terminally GFP-tagged BORCS5 constructs from lysates of transfected cells 24 h after transfection (10 mM Tris-Cl pH 7.5, 150 mM NaCl, 0.5 mM EDTA, 1% Triton X-100, 10% glycerol), 2 h at 4°C, five washes; endogenous SNAPIN and BORCS7 detected by immunoblotting; GFP alone as control. Background: A western blot detects proteins with antibodies after separation by electrophoresis.

B1: BORCS7 (natural protein)
chain: MMATGTPESQARFGQSVKGLLTEKVTTCGTDVIALTKQVLKGSRSSELLGQAARNMVLQEDAILHSEDSLRKMAIITTHLQYQQEAIQKNVEQSSDLQDQLNHLLK
With B1, the percent less co-immunoprecipitated than with WT stood at 30%.

These data come from paper doi:10.1101/2025.04.30.25326597.
